Percent of cells within the marker-1 (M1, unstained) region data for one substance are collected here from patent publication US6994976.

In this test the target is mouse TR3 (mouse) (UniProt Q925D8). Description: flow cytometry on ConA-activated murine CD8+ T-cells, control stain. For orientation: In flow cytometry, cells or beads pass a laser one at a time.
Sequence of UniProt Q925D8 (Q925D8 whole entry): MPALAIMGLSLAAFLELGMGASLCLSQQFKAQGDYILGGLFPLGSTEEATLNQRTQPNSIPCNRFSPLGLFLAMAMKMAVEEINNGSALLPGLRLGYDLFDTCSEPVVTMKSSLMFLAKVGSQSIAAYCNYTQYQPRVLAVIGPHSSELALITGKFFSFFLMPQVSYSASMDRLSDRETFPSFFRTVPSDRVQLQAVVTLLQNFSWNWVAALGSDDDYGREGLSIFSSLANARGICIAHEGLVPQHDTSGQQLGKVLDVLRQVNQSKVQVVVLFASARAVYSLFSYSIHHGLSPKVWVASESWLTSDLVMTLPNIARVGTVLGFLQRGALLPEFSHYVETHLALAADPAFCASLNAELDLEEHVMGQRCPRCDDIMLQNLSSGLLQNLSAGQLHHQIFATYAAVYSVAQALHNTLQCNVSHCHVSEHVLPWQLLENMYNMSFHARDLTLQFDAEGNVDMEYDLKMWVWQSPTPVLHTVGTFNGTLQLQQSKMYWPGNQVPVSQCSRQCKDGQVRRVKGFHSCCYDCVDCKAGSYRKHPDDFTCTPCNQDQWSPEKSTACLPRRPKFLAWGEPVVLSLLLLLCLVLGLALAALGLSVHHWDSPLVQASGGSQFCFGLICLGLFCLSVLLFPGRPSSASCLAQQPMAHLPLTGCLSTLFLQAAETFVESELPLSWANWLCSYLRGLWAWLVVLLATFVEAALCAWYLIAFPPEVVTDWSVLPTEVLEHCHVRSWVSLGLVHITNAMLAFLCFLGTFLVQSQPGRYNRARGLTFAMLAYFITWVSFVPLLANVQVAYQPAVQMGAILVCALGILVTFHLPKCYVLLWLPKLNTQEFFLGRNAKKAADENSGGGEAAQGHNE

For “normal (non-immune) rat serum (antibody)”, the percent of cells within the marker-1 (M1, unstained) region turned out to be 99%.
